# Key:
# [1] = molecular target: ADM (human or mouse, not stated for this control); assay: cell-based or functional assay
# [2] = molecular target: human recombinant adrenomedullin receptor (CRLR+RAMP3) (human)
Maximal inhibition of ADM bioactivity (ADM-Bioassay) (%) [1] [%],"EC50 (read off the curve), cAMP formation [2] [nM]",Substance
0,,Non specific mouse IgG (antibody)
,1,human adrenomedullin (hADM 1-52) (peptide)

# — patent publication US20140322225A1
